According to patent publication US11814447B2, “Peptide ligands for binding to EphA2” (BICYCLERD LIMITED, priority 2018, dated 2023):
Starred links: 1 amine or outer side, 2 acyl side, 3 side chain; linkers in the order of their positions; H or OH if unused. Positions of bridges follow the written chain, without caps; N, C: chain ends. Non-standard residues stand in square brackets, D forms with d. Primed or numbered codes have the meaning given here. No end group written: not given here. TBMB′ = 1,3,5-tris(bromomethyl)benzene, 1,3,5-tris(methylene)benzene core, three thioethers to Cys; 4FlPro = 4-fluoropyrrolidine-2-carboxylic acid (4-fluoroproline); Phe(3,4-Cl2) = N[C@@H](Cc1ccc(Cl)c(Cl)c1)C(=O)O; Bip = N[C@@H](Cc1ccc(-c2ccccc2)cc1)C(=O)O; Phe(4-Br) = N[C@@H](Cc1ccc(Br)cc1)C(=O)O; 1Nal = N[C@@H](Cc1cccc2ccccc12)C(=O)O; 2Nal = N[C@@H](Cc1ccc2ccccc2c1)C(=O)O; TBMB = c1c(C[*:1])cc(C[*:3])cc1C[*:2]; Hyp = O=C(O)[C@@H]1C[C@@H](O)CN1; hArg = N=C(N)NCCCC[C@H](N)C(=O)O; hPhe = N[C@@H](CCc1ccccc1)C(=O)O; 3Pal = N[C@@H](Cc1cccnc1)C(=O)O; 4Pal = N[C@@H](Cc1ccncc1)C(=O)O; Phg = N[C@H](C(=O)O)c1ccccc1; Tle = CC(C)(C)[C@H](N)C(=O)O; Pip = O=C(O)[C@@H]1CCCCN1; Aze = O=C(O)[C@@H]1CCN1; Aib = CC(C)(N)C(=O)O; Sar = CNCC(=O)O

B1: Bicycle Compound Number 93 (TBMB scaffold) (peptide)
peptide: [Sar][Sar]ACPWGP[Phg]WCPVNRPGC
modifications: linker 4-11-18 via TBMB′
notes: also called Compound 93
B2: Bicycle Compound Number 85 (TBMB scaffold) (peptide)
peptide: [Sar][Sar]ACPWGP[Phe(4-Br)]WCPVNRPGC
modifications: linker 4-11-18 via TBMB′
notes: also called Compound 85
B3: Bicycle Compound Number 135 (TBMB scaffold) (peptide)
peptide: [Sar][Sar]AC[Aib][1Nal]G[Aib]FWCPVNR[Aib]GC
modifications: linker 4-11-18 via TBMB
B4: Bicycle Compound Number 103 (TBMB scaffold) (peptide)
peptide: [Sar][Sar]ACPWGPFWCPVN[hArg]PGC
modifications: linker 4-11-18 via TBMB
B5: Bicycle Compound Number 92 (TBMB scaffold) (peptide)
peptide: [Sar][Sar]ACPWGP[3Pal]WCPVNRPGC
modifications: linker 4-11-18 via TBMB′
notes: also called Compound 92
B6: Bicycle Compound Number 33 (TBMB scaffold) (peptide)
peptide: ACRVSPEYCPFGPVWCA
modifications: linker 2-9-16 via TBMB
notes: also called Compound 33
B7: Bicycle Compound Number 37 (TBMB scaffold) (peptide)
peptide: ACRVSPEYCPFGPEWCA
modifications: linker 2-9-16 via TBMB
notes: also called Compound 37
B8: Bicycle Compound Number 38 (TBMB scaffold) (peptide)
peptide: ACRVSPEYCPFGPYWCA
modifications: linker 2-9-16 via TBMB
notes: also called Compound 38
B9: Bicycle Compound Number 36 (TBMB scaffold) (peptide)
peptide: ACRVSPEYCPFGPSWCA
modifications: linker 2-9-16 via TBMB
notes: also called Compound 36
B10: Bicycle Compound Number 42 (TBMB scaffold) (peptide)
peptide: ACPWGPAWCPVRDTNCA
modifications: linker 2-9-16 via TBMB
notes: also called Compound 42
B11: Bicycle Compound Number 97 (TBMB scaffold) (peptide)
peptide: [Sar][Sar]ACPWGPFWC[Aze]VNRPGC
modifications: linker 4-11-18 via TBMB′
notes: also called Compound 97
B12: Bicycle Compound Number 100 (TBMB scaffold) (peptide)
peptide: [Sar][Sar]ACPWGPFWCP[Tle]NRPGC
modifications: linker 4-11-18 via TBMB
notes: also called Compound 100
B13: Bicycle Compound Number 95 (TBMB scaffold) (peptide)
peptide: [Sar][Sar]ACPWGP[2Nal]WCPVNRPGC
modifications: linker 4-11-18 via TBMB′
notes: also called Compound 95
B14: Bicycle Compound Number 109 (TBMB scaffold) (peptide)
peptide: [Sar][Sar]ACPWGPFWCPVNR[4FlPro]GC
modifications: linker 4-11-18 via TBMB
B15: Bicycle Compound Number 80 (TBMB scaffold) (peptide)
peptide: [Sar][Sar]ACPWG[Aib]FWCPVNRPGC
modifications: linker 4-11-18 via TBMB′
notes: also called Compound 80
B16: Bicycle Compound Number 30 (TBMB scaffold) (peptide)
peptide: ACMNDWLCQLGWTCA
modifications: linker 2-8-14 via TBMB
notes: also called Compound 30
B17: Bicycle Compound Number 24 (TBMB scaffold) (peptide)
peptide: ACMNDWLCSLGWTCA
modifications: linker 2-8-14 via TBMB
notes: also called Compound 24
B18: Bicycle Compound Number 136 (TBMB scaffold) (peptide)
peptide: [Sar][Sar]ACP[1Nal]G[Aib]FWCP[Tle]N[hArg]PGC
modifications: linker 4-11-18 via TBMB
B19: Bicycle Compound Number 88 (TBMB scaffold) (peptide)
peptide: [Sar][Sar]ACPWGP[Bip]WCPVNRPGC
modifications: linker 4-11-18 via TBMB′
notes: also called Compound 88
B20: Bicycle Compound Number 106 (TBMB scaffold) (peptide)
peptide: [Sar][Sar]ACPWGPFWCPVNR[Aze]GC
modifications: linker 4-11-18 via TBMB
B21: Bicycle Compound Number 84 (TBMB scaffold) (peptide)
peptide: [Sar][Sar]ACPWGP[4Pal]WCPVNRPGC
modifications: linker 4-11-18 via TBMB′
notes: also called Compound 84
B22: Bicycle Compound Number 107 (TBMB scaffold) (peptide)
peptide: [Sar][Sar]ACPWGPFWCPVNR[Hyp]GC
modifications: linker 4-11-18 via TBMB
B23: Bicycle Compound Number 96 (TBMB scaffold) (peptide)
peptide: [Sar][Sar]ACPWGPF[1Nal]CPVNRPGC
modifications: linker 4-11-18 via TBMB′
notes: also called Compound 96
B24: Bicycle Compound Number 117 (TBMB scaffold) (peptide)
peptide: [Sar][Sar]ACPWGPF[1Nal]CPV[dA]RPGC
modifications: linker 4-11-18 via TBMB
notes: also called Sar2-ACPWGPF(1Nal)CPV(D-Ala)RPGC
B25: Bicycle Compound Number 69 (TBMB scaffold) (peptide)
peptide: ACPWGPFWCPVNRPGCA
modifications: linker 2-9-16 via TBMB
notes: also called Compound 69
B26: Bicycle Compound Number 108 (TBMB scaffold) (peptide)
peptide: [Sar][Sar]ACPWGPFWCPVNR[Pip]GC
modifications: linker 4-11-18 via TBMB
B27: Bicycle Compound Number 114 (TBMB scaffold) (peptide)
peptide: [Sar][Sar]AC[Aib]WGPF[1Nal]CPVNRPGC
modifications: linker 4-11-18 via TBMB
B28: Bicycle Compound Number 99 (TBMB scaffold) (peptide)
peptide: [Sar][Sar]ACPWGPFWC[4FlPro]VNRPGC
modifications: linker 4-11-18 via TBMB
notes: also called Compound 99
B29: Bicycle Compound Number 94 (TBMB scaffold) (peptide)
peptide: [Sar][Sar]ACPWGP[1Nal]WCPVNRPGC
modifications: linker 4-11-18 via TBMB′
notes: also called Compound 94
B30: Bicycle Compound Number 83 (TBMB scaffold) (peptide)
peptide: [Sar][Sar]ACPWGPAWCPVNRPGC
modifications: linker 4-11-18 via TBMB′
notes: also called Compound 83
B31: Bicycle Compound Number 102 (TBMB scaffold) (peptide)
peptide: [Sar][Sar]ACPWGPFWCPV[dA]RPGC
modifications: linker 4-11-18 via TBMB
B32: Bicycle Compound Number 91 (TBMB scaffold) (peptide)
peptide: [Sar][Sar]ACPWGPYWCPVNRPGC
modifications: linker 4-11-18 via TBMB′
notes: also called Compound 91
B33: Bicycle Compound Number 111 (TBMB scaffold) (peptide)
peptide: [Sar][Sar]ACPWGPFWCPVNRPAC
modifications: linker 4-11-18 via TBMB
B34: Bicycle Compound Number 101 (TBMB scaffold) (peptide)
peptide: [Sar][Sar]ACPWGPFWCPVARPGC
modifications: linker 4-11-18 via TBMB
B35: Bicycle Compound Number 104 (TBMB scaffold) (peptide)
peptide: [Sar][Sar]ACPWGPFWCPVNRAGC
modifications: linker 4-11-18 via TBMB
B36: Bicycle Compound Number 105 (TBMB scaffold) (peptide)
peptide: [Sar][Sar]ACPWGPFWCPVNR[dA]GC
modifications: linker 4-11-18 via TBMB
B37: Bicycle Compound Number 34 (TBMB scaffold) (peptide)
peptide: ACRVSPEYCPFGPVWCAGAAA
modifications: linker 2-9-16 via TBMB
notes: also called Compound 34
B38: Bicycle Compound Number 90 (TBMB scaffold) (peptide)
peptide: [Sar][Sar]ACPWGP[Phe(3,4-Cl2)]WCPVNRPGC
modifications: linker 4-11-18 via TBMB′
notes: also called Compound 90
B39: Bicycle Compound Number 62 (TBMB scaffold) (peptide)
peptide: ARDDPCPWGPFWCPVNRPGCA
modifications: linker 6-13-20 via TBMB (inferred)
notes: also called Compound 62
B40: Bicycle Compound Number 98 (TBMB scaffold) (peptide)
peptide: [Sar][Sar]ACPWGPFWC[Hyp]VNRPGC
modifications: linker 4-11-18 via TBMB′
notes: also called Compound 98
B41: Bicycle Compound Number 119 (TBMB scaffold) (peptide)
peptide: [Sar][Sar]ACP[1Nal]G[Aib]FWCPVNRPGC
modifications: linker 4-11-18 via TBMB
B42: Bicycle Compound Number 87 (TBMB scaffold) (peptide)
peptide: [Sar][Sar]ACPWGP[hPhe]WCPVNRPGC
modifications: linker 4-11-18 via TBMB′
notes: also called Compound 87
B43: Bicycle Compound Number 124 (TBMB scaffold) (peptide)
peptide: [Sar][Sar]AC[Aib][1Nal]GPFWCPV[dA]RPGC
modifications: linker 4-11-18 via TBMB
notes: also called Sar2-AC(Aib)(1Nal)GPFWCPV(D-Ala)RPGC
B44: Bicycle Compound Number 138 (TBMB scaffold) (peptide)
peptide: [Sar][Sar]ACP[1Nal]GPFWCP[Tle]N[hArg][Aib]GC
modifications: linker 4-11-18 via TBMB
B45: Bicycle Compound Number 118 (TBMB scaffold) (peptide)
peptide: [Sar][Sar]ACPWGPF[1Nal]CPVNRP[dA]C
modifications: linker 4-11-18 via TBMB
notes: also called Sar2-ACPWGPF(1Nal)CPVNRP(D-Ala)C
B46: Bicycle Compound Number 112 (TBMB scaffold) (peptide)
peptide: [Sar][Sar]ACPWGPFWCPVNRP[dA]C
modifications: linker 4-11-18 via TBMB
B47: Bicycle Compound Number 130 (TBMB scaffold) (peptide)
peptide: [Sar][Sar]ACP[1Nal]GPFWCP[Tle]N[hArg]PGC
modifications: linker 4-11-18 via TBMB
notes: also called Compound 130; Sar2-ACP(1Nal)GPFWCP(tBuGly)N(HArg)PGC
B48: Bicycle Compound Number 59 (TBMB scaffold) (peptide)
peptide: AHDVPCPWGPFWCPVNRPGCA
modifications: linker 6-13-20 via TBMB (inferred)
notes: also called Compound 59

The binders below were run against T1, Human EphA2 (Ecto), C-terminal polyHis (Human, UniProt P29317 24-537) (assay: fluorescence polarisation competition; competitor fluorescent Compound 66).
T1 construct: extracellular domain; also called EPH receptor A2; ephrin type-A receptor 2
T1 sequence (P29317 24-537): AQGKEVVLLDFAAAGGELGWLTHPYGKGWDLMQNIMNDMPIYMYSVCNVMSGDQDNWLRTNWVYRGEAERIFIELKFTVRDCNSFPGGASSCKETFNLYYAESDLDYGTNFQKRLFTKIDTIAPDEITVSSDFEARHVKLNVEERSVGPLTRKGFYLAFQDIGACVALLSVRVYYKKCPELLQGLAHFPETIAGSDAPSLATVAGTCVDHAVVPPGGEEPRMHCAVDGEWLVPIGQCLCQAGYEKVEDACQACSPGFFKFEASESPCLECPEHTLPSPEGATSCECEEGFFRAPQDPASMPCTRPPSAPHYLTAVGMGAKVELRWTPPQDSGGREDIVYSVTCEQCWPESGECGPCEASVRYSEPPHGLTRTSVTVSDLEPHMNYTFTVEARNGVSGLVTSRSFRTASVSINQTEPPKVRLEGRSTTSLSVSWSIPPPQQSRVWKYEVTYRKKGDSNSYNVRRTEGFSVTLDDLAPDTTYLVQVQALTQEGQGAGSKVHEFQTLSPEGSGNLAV
Experimental: (§1) Peptides without a fluorescent tag were tested in competition with a peptide with a fluorescent tag and a known Kd (Table 2). Peptides were diluted to an appropriate concentration in assay buffer as described in the direct binding assay with a maximum of 5% DMSO, then serially diluted 1 in 2. […] Measurements were conducted as for the direct binding assay, however the gain was determined prior to the first measurement. Data analysis was in Systat Sigmaplot version 12.0 where the mP values were fit to a user defined cubic equation to generate a Ki value: […]
Work on B1 yielded a Ki of 412 nM. Work on B2 yielded a Ki of 174 nM. In the case of B3, the Ki is reported as 30 nM. With B4 the Ki was 169 nM. B5 was tested, and the Ki was 165 nM. Binder B6 has a Ki of 78.5 nM. Work on B7 yielded a Ki of 61.2 nM. For B8, the Ki was 26.5 nM. In the case of B9, the Ki is reported as 40.5 nM. B10 was tested, and the Ki was 316 nM. B11 gave a Ki of 286 nM. In the case of B12, the Ki is reported as 112 nM. For B13, the Ki was 362 nM. With B14 the Ki was 184 nM. B15 was tested, and the Ki was 187 nM. In the case of B16, the Ki is reported as 56 nM. B17 showed a Ki of 82.3 nM. Work on B18 yielded a Ki of 15 nM. B19 was tested, and the Ki was 183 nM. B20 was tested, and the Ki was 155 nM. For B21, the Ki was 81.5 nM. Work on B22 yielded a Ki of 85.8 nM. B23 gave a Ki of 68.1 nM. B24 gave a Ki of 75 nM. Work on B25 yielded a Ki of 70.1 nM. In the case of B26, the Ki is reported as 374 nM. Binder B27 has a Ki of 43 nM. In the case of B28, the Ki is reported as 270 nM. Binder B29 has a Ki of 196 nM. B30 gave a Ki of 288 nM. With B31 the Ki was 312 nM. For B32, the Ki was 138 nM. For B33, the Ki was 238 nM. B34 was tested, and the Ki was 265 nM. With B35 the Ki was 194 nM. B36 was tested, and the Ki was 471 nM. With B37 the Ki was 77.4 nM. Binder B38 has a Ki of 361 nM. In the case of B39, the Ki is reported as 28 nM. B40 showed a Ki of 163 nM. B41 showed a Ki of 8.4 nM.

These binders were tested against T1, Human EphA2 (Ecto), C-terminal polyHis (assay: fluorescence polarisation competition; competitor fluorescent Compound 18).
Experimental: as §1
B3 showed a Ki of 43 nM. For B4, the Ki was 126 nM. For B12, the Ki was 58.3 nM. B42 showed a Ki of 162 nM. In the case of B15, the Ki is reported as 120 nM. Work on B18 yielded a Ki of 23 nM. B43 was tested, and the Ki was 26 nM. B21 gave a Ki of 33.5 nM. In the case of B22, the Ki is reported as 48.7 nM. In the case of B44, the Ki is reported as 5.1 nM. With B23 the Ki was 31.3 nM. Work on B24 yielded a Ki of 53 nM. Work on B45 yielded a Ki of 37 nM. With B25 the Ki was 107 nM. In the case of B30, the Ki is reported as 199 nM. B31 showed a Ki of 317 nM. B46 showed a Ki of 89 nM. B33 showed a Ki of 108 nM. B35 was tested, and the Ki was 124 nM. In the case of B47, the Ki is reported as 0.29 nM. B48 gave a Ki of 0.54 nM.
